Assays:
[1] = molecular target: T1, human PDL1 expressed on cells (human, UniProt Q9NZQ7 19-290); assay: cell-based or functional assay
[2] = molecular target: cynomolgus PDL1, recombinant (Sino Biological) / PDL1-Fc chimeric protein (cynomolgus (Macaca fascicularis), UniProt G7PSE7 19-238); assay: SPR Biacore T200; cynomolgus PDL1 (Sino Biological) captured; scFv as analyte
Method: After each analyte injection cycle, the CM5 sensor chip was regenerated and new antigen was captured. The scFvs were injected as analyte using a dose response multicycle kinetic assay with concentrations of the analyte ranging from 0.12 to 30 nM diluted in running buffer for 5 min and dissociation of the protein was allowed to proceed for 12 min. Obtained sensorgrams were fitted using the 1:1 binding model.

[3] = molecular target: T2, human PDL1 (recombinant, soluble) (human, UniProt Q9NZQ7 19-238); assay: PDL1/PD-1 competition ELISA; PD-1 coated, biotinylated PDL1 1 ng/ml
T2 construct: also called hPDL1; hPD-L1
Method: (§1) ELISA microplates coated overnight at 4° C. with 4 μg/ml human PD-1 were washed three times with 450 μl wash buffer per well. Plates were blocked for 1 hour at room temperature by adding 300 μl of PBS with 1% BSA and 0.2% tween (dilution buffer) to each well. […] The mixtures were pre-incubated for 1 hour at room temperature under gentle agitation on a rotating mixer (21 rpm) and added to the microplates after 3 wash cycles with 450 μl wash buffer per well. Plates were incubated for 1.5 hours at room temperature under gentle agitation, then 10 ng/ml streptavidin-polyHRP40 was added to each microplate well after three washes with 450 μl of wash buffer per well. After 1 h incubation at RT, plates were washed three times with 450 μl wash buffer and TMB substrate solution was added. The enzymatic reaction was stopped after 6 minutes by addition of 1 M HCl and absorbance was measured at 450 nm using 690 nm as a reference wavelength. For calculation of IC₅₀ values, a four-parameter logistic (4PL) curve fit was performed in Graph Pad Prism using reference subtracted values.

[4] = molecular target: T2, human PDL1 (recombinant, soluble); assay: PDL1/B7-1 competition ELISA; B7-1 coated, biotinylated PDL1 40 ng/ml
Method: as §1, with “B7-1” for “PD-1”

[5] = molecular target: T1, human PDL1 expressed on cells; assay: cell-based or functional assay; remark: listed apart in the source

Sequence of cynomolgus PDL1, recombinant (Sino Biological) / PDL1-Fc chimeric protein (G7PSE7 entry or part of it mutant limits assumed): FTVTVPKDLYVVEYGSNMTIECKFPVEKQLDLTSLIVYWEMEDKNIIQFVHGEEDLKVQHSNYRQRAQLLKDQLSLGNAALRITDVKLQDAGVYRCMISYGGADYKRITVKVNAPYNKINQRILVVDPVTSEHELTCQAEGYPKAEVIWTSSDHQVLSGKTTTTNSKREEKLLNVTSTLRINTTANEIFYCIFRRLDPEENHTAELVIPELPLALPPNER

Binder | IC50 [3] | IC50 [4] | NF-AT potency assay IC50 [5] | other results
PRO1347 (37-20-B03-sc09 scFv) (scFv) DIQMTQSPASLSASVGDRVTITCQASQSIGTYLAWYQQKPGKPPKLLIYRAFILASGVPSRFSGSGSGTDFTLTISSLQPEDFATYYCQSNFYSDSTTIGPNAFGTGTKVTVLGGGGGSGGGGSGGGGSGGGGSEVQLVESGGGLVQPGGSLRLSCAASGFSFNSDYWIYWVRQAPGKGLEWIACIYGGSSGNTQYASWAQGRFTISRDNSKNTVYLQMNSLRAEDTAVYFCARGYVDYGGATDLWGQGTLVTVSS |  |  |  | reporter gene assay IC50 [1]: 0.00753 µg/mL; reporter gene assay Maximum Inhibition (%) [1]: 88.9%; KD, cyno/KD, human [2]: 1.41; Kd [2]: 0.0127 nM; koff [2]: 8.77e-05 s⁻¹; kon [2]: 6.88e+06 M⁻¹ s⁻¹
PRO1062 (33-03-G02 sc01 IgG1 HC with 38_27_C05 sc01 scFv, PDL1/CD137 (scFv) silent Morrison) (bispecific antibody, also called Morrison-H) light: DIQMTQSPSSLSASVGDRVTITCQASQSINDYLAWYQQKPGKAPKLLIYKASTLASGVPSRFSGSGSGTDFTLTISSLQPEDFATYYCQQGYIITDIDNVFGTGTKVTVLGTVAAPSVFIFPPSDEQLKSGTASVVCLLNNFYPREAKVQWKVDNALQSGNSQESVTEQDSKDSTYSLSSTLTLSKADYEKHKVYACEVTHQGLSSPVTKSFNRGEC heavy: QVQLQESGPGLVKPSETLSLTCKVSGFSFSSGYDMCWIRQPPGKGLEWIGCVVAGSVDITYYASWAKGRVTISVDSSKNQFSLKLSSVTAADTAVYYCARKDAYSDAFNLWGQGTLVTVSSASTKGPSVFPLAPSSKSTSGGTAALGCLVKDYFPEPVTVSWNSGALTSGVHTFPAVLQSSGLYSLSSVVTVPSSSLGTQTYICNVNHKPSNTKVDKRVEPKSCDKTHTCPPCPAPEAAGGPSVFLFPPKPKDTLMISRTPEVTCVVVDVSHEDPEVKFNWYVDGVEVHNAKTKPREEQYNSTYRVVSVLTVLHQDWLNGKEYKCKVSNKALGAPIEKTISKAKGQPREPQVYTLPPSREEMTKNQVSLTCLVKGFYPSDIAVEWESNGQPENNYKTTPPVLDSDGSFFLYSKLTVDKSRWQQGNVFSCSVMHEALHNHYTQKSLSLSPGKGGGGSGGGGSIQMTQSPSSLSASVGDRVTITCQASQSINNVLAWYQQKPGKAPKLLIYRASTLASGVPSRFSGSGSGTDFTLTISSLQPEDFATYYCQSSYGNYGDFGTGTKVTVLGGGGGSGGGGSGGGGSGGGGSQVQLQESGPGLVKPSETLSLTCKVSGFSFSNSYWICWIRQPPGKGLEWIGCTFVGSSDSTYYANWAKGRVTISVDSSKNQFSLKLSSVTAADTAVYYCARHPSDAVYGYANNLWGQGTLVTVSS | 0.0113 µg/mL | 0.0195 µg/mL |  | 
PRO1059 (33-03-G02 IgG1 LC with 38_02_A04 sc01 scFv, PDL1/CD137 (scFv) silent Morrison) (bispecific antibody, also called Morrison-L) light: DIQMTQSPSSLSASVGDRVTITCQASQSINDYLAWYQQKPGKAPKLLIYKASTLASGVPSRFSGSGSGTDFTLTISSLQPEDFATYYCQQGYIITDIDNVFGTGTKVTVLGTVAAPSVFIFPPSDEQLKSGTASVVCLLNNFYPREAKVQWKVDNALQSGNSQESVTEQDSKDSTYSLSSTLTLSKADYEKHKVYACEVTHQGLSSPVTKSFNRGECGGGGSGGGGSIQMTQSPSSLSASVGDRVTITCQASQSINNVLAWYQQKPGKAPKLLIYRASTLASGVPSRFSGSGSGTDFTLTISSLQPEDFATYYCQSSYGNYGDFGTGTKVTVLGGGGGSGGGGSGGGGSGGGGSQVQLQESGPGLVKPSETLSLTCKVSGFSFSNSYWICWIRQPPGKGLEWIGCTFVGSSDSTYYANWAKGRVTISVDSSKNQFSLKLSSVTAADTAVYYCARHPSDAVYGYANNLWGQGTLVTVSS heavy: QVQLQESGPGLVKPSETLSLTCKVSGFSFSSGYDMCWIRQPPGKGLEWIGCVVAGSVDITYYASWAKGRVTISVDSSKNQFSLKLSSVTAADTAVYYCARKDAYSDAFNLWGQGTLVTVSSASTKGPSVFPLAPSSKSTSGGTAALGCLVKDYFPEPVTVSWNSGALTSGVHTFPAVLQSSGLYSLSSVVTVPSSSLGTQTYICNVNHKPSNTKVDKRVEPKSCDKTHTCPPCPAPEAAGGPSVFLFPPKPKDTLMISRTPEVTCVVVDVSHEDPEVKFNWYVDGVEVHNAKTKPREEQYNSTYRVVSVLTVLHQDWLNGKEYKCKVSNKALGAPIEKTISKAKGQPREPQVYTLPPSREEMTKNQVSLTCLVKGFYPSDIAVEWESNGQPENNYKTTPPVLDSDGSFFLYSKLTVDKSRWQQGNVFSCSVMHEALHNHYTQKSLSLSPGK | 0.00454 µg/mL | 0.029 µg/mL | 0.0938 µg/mL | 
PRO951 (38-27-C05 sc02 scDb-i/33-03-G02 sc01 scDb-o) (bispecific antibody) DIQMTQSPSSLSASVGDRVTITCQASQSINDYLAWYQQKPGKAPKLLIYKASTLASGVPSRFSGSGSGTDFTLTISSLQPEDFATYYCQQGYIITDIDNVFGTGTKVTVLGGGGGSEVQLVESGGGLVQPGGSLRLSCAASGFSFNNDYDMCWVRQAPGKGLEWIGCIDTGDGSTYYASWAKGRFTISRDNSKNTVYLQMNSLRAEDTAVYYCAREAASSSGYGMGYFDLWGQGTLVTVSSGGGGSGGGGSGGGGSGGGGSIQMTQSPSSLSASVGDRVTITCQSSQSVYDNNWLAWYQQKPGKAPKLLIYRASNLASGVPSRFSGSGSGTDFTLTISSLQPEDFATYYCQGTYLSSNWYWAFGTGTKVTVLGGGGGSQVQLQESGPGLVKPSETLSLTCKVSGFSFSSGYDMCWIRQPPGKGLEWIGCVVAGSVDITYYASWAKGRVTISVDSSKNQFSLKLSSVTAADTAVYYCARKDAYSDAFNLWGQGTLVTVSS | 0.0095 µg/mL | 0.0093 µg/mL | 0.0885 µg/mL | 
PRO963 (= PRO1051)(38_02_A04 sc01 scDb-i/33-03-G02 sc01 scDb-o/19-01-H04-sc03 scFv) (other) DIQMTQSPSSLSASVGDRVTITCQASQSINDYLAWYQQKPGKAPKLLIYKASTLASGVPSRFSGSGSGTDFTLTISSLQPEDFATYYCQQGYIITDIDNVFGTGTKVTVLGGGGGSQVQLQESGPGLVKPSETLSLTCKVSGFSFSNSYWICWIRQPPGKGLEWIGCTFVGSSDSTYYANWAKGRVTISVDSSKNQFSLKLSSVTAADTAVYYCARHPSDAVYGYANNLWGQGTLVTVSSGGGGSGGGGSGGGGSGGGGSIQMTQSPSSLSASVGDRVTITCQASQSINNVLAWYQQKPGKAPKLLIYRASTLASGVPSRFSGSGSGTDFTLTISSLQPEDFATYYCQSSYGNYGDFGTGTKVTVLGGGGGSQVQLQESGPGLVKPSETLSLTCKVSGFSFSSGYDMCWIRQPPGKGLEWIGCVVAGSVDITYYASWAKGRVTISVDSSKNQFSLKLSSVTAADTAVYYCARKDAYSDAFNLWGQGTLVTVSSGGGGSGGGGSIQMTQSPSSLSASVGDRVTITCQSSESVYSNNQLSWYQQKPGQPPKLLIYDASDLASGVPSRFSGSGSGTDFTLTISSLQPEDFATYYCAGGFSSSSDTAFGGGTKLTVLGGGGGSGGGGSGGGGSGGGGSEVQLVESGGGLVQPGGSLRLSCAASGFSLSSNAMGWVRQAPGKGLEYIGIISVGGFTYYASWAKGRFTISRDNSKNTVYLQMNSLRAEDTATYFCARDRHGGDSSGAFYLWGQGTLVTVSS |  |  |  | NF-AT potency assay IC50 (with HSA) [5]: 0.275 µg/mL

Reference: patent US20200283528A1 (NUMAB THERAPEUTICS, published 2020)
